In paper PMC9241078:

Experiments:
Experiment in all cases: potentiometry
[1] = target: Cterm135 (UniProt position 135, AGEDAI-----); conditions: 298 K; 0.1 M KCl; none (peptide dissolved in 4 x 10^-3 M HCl); metal-free peptide. Ligand concentration is 0.5 mM in Methods, but the Table 3 footnote says 0.001 M.
[2] = target: Glu132 (UniProt position 132, …--); conditions: 298 K; 0.1 M KCl; none (peptide dissolved in 4 x 10^-3 M HCl); metal-free peptide. Ligand concentration is 0.5 mM in Methods, but the Table 3 footnote says 0.001 M.
Cterm120 = conditions: 298 K; 0.1 M KCl; none (peptide dissolved in 4 x 10^-3 M HCl); metal-free peptide. Ligand concentration is 0.5 mM in Methods, but the Table 3 footnote says 0.001 M.
Glu117 = conditions: 298 K, 0.1 M KCl, none (peptide dissolved in 4 x 10^-3 M HCl)
[3] = metal-free peptide. Ligand concentration is 0.5 mM in Methods, but the Table 3 footnote says 0.001 M.

Row | Protein | pKa [1] | pKa [2] | pKa (Cterm120) | pKa (Glu117; [3]) | pKa (Glu117; Ni(II)-bound, metal to ligand 1:1 (NiH4L to NiH3L step))
1 | DHHLAHIVLDAVAHAGEDAI | 3.16 | 5.74 | – | – | –
2 | DHHLAAIVVDAIAHASEDRR [BigR4 alpha5 domain peptide mutant H106A (L3) (Mycobacterium smegmatis; H106A)] | – | – | 2,97 | 5,91 | –
3 | DHHLAHIVVDAIAHASEDRR | – | – | 3.23 | 5.80 | –
4 | DAHLAHIVVDAIAHASEDRR [BigR4 alpha5 domain peptide mutant H102A (L2) (Mycobacterium smegmatis; H102A)] | – | – | 3.35 | 6.10 | 5.61
